In patent US20250179208A1:

Target: CD26 protein (recombinant human CD26) (human) (UniProt P27487)
Assay: BLI (Octet QKe), CD26 amine-coupled on AR2G sensor, antibody at 181.8 nM

B1: 17G108 (anti-CD26-CD3 chimeric bispecific antibody derived from No. 160 mouse antibody) (bispecific antibody)
chain: DIVMTQAAPSVPVTPGESVSISCRSSKSLLHSNGNTYLYWFLQRPGQSPQLLISQMSNLASGIPDRFSGSGSGTAFTLRISRVEAEDVGVYYCMQHLEYPFTFGSGTKLEIKGGGGSGGGGSGGGGSEVQLQQSGAELVKPGASVKLSCTASGFNIKDNYMNWVKQRPEQGLEWIGRIDPANGNPKYDPKFQGKATITADTSSNTAYLQLSSLTSEDTAVYYCTRWIYYYGSRYEWYFDVWGAGTTVTVSSGGGGSDVQLVQSGAEVKKPGASVKVSCKASGYTFTRYTMHWVRQAPGQGLEWIGYINPSRGYTNYADSVKGRFTITTDKSTSTAYMELSSLRSEDTATYYCARYYDDHYCLDYWGQGTTVTVSSGGGGSGGGGSGGGGSDIVLTQSPATLSLSPGERATLSCRASQSVSYMNWYQQKPGKAPKRWIYDTSKVASGVPARFSGSGSGTDYSLTINSLEAEDAATYYCQQWSSNPLTFGGGTKVEIK
With B1 the Response was 0.0395.
